Reference: paper PMC7330677

Key:
Human CXCR4 (human) = Human CXCR4 (human) (UniProt P61073)
CXCR4-FlAsH228 (human) = CXCR4-FlAsH228 (human) (UniProt P61073)

- EC50 of CXCL12 for Gi1 activation, one representative experiment of Fig. 1D (Human CXCR4 (human)): 3.3 nM
- EC50 of CXCL12 for Gi1 activation, one representative experiment of Fig. 1D (CXCR4-FlAsH228 (human)): 14.7 nM
Substance: Recombinant human CXCL12 (from UniProt P48061 22-93) (ligand)
